According to publication doi:10.1101/2022.05.06.490861:

Columns and labels:
[1] = target: Arp2/3 complex (bovine (purified from bovine brain)) (UniProt P61157)
[2] = target: Arp2/3 complex (bovine (purified from bovine brain)) (UniProt P61157); remark: listed apart in the source

Row | acceleration of debranching of Arp2/3-mediated branches, 0-3 µM VCA [1] [fold] | increase of the detachment rate of SPIN90-Arp2/3-nucleated filaments, 0-1 µM VCA [2] [fold] | Substance
1 | < 83 | – | GST-WASH-VCA (from UniProt Q8VDD8 319-475) (domain or fragment)
2 | – | < 16 | GST-N-WASP-VCA (from UniProt O00401 392-505) (domain or fragment)
